According to publication PMC2839365:

Biological target: ZU5 domain of ankyrin
Assay: ITC

ZU5 domain of ankyrin, sequence (P16157 913-1068): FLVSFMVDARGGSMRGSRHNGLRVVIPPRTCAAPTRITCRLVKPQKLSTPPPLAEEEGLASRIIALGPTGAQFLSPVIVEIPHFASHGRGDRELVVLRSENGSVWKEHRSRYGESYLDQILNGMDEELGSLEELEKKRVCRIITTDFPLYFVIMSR

dH [kcal/mol] | Substance
5.98 | wild type βI-spectrin 14-15 di-repeat (domain or fragment)
0.904 | βI14-15 A1867P (domain or fragment)
4.42 | βI14-15 D1700A (domain or fragment)
4.64 | βI14-15 D1701A (domain or fragment)
5.52 | βI14-15 D1781A (domain or fragment)
4.82 | βI14-15 E1703A (domain or fragment)
3.27 | βI14-15 E1708A (domain or fragment)
3.73 | βI14-15 E1710A (domain or fragment)
5.21 | βI14-15 E1784A (domain or fragment)
2.08 | βI14-15 T1788A (domain or fragment)
2.52 | βI14-15 Y1866A (domain or fragment)
